Target: Y925F-FAK (nonphosphorylatable mutant of FAK/YCam) (human, UniProt Q05397 1-1052, Y925F)
Assay: co-IP

Chain of Y925F-FAK (nonphosphorylatable mutant of FAK/YCam) (Q05397 whole entry Y925F): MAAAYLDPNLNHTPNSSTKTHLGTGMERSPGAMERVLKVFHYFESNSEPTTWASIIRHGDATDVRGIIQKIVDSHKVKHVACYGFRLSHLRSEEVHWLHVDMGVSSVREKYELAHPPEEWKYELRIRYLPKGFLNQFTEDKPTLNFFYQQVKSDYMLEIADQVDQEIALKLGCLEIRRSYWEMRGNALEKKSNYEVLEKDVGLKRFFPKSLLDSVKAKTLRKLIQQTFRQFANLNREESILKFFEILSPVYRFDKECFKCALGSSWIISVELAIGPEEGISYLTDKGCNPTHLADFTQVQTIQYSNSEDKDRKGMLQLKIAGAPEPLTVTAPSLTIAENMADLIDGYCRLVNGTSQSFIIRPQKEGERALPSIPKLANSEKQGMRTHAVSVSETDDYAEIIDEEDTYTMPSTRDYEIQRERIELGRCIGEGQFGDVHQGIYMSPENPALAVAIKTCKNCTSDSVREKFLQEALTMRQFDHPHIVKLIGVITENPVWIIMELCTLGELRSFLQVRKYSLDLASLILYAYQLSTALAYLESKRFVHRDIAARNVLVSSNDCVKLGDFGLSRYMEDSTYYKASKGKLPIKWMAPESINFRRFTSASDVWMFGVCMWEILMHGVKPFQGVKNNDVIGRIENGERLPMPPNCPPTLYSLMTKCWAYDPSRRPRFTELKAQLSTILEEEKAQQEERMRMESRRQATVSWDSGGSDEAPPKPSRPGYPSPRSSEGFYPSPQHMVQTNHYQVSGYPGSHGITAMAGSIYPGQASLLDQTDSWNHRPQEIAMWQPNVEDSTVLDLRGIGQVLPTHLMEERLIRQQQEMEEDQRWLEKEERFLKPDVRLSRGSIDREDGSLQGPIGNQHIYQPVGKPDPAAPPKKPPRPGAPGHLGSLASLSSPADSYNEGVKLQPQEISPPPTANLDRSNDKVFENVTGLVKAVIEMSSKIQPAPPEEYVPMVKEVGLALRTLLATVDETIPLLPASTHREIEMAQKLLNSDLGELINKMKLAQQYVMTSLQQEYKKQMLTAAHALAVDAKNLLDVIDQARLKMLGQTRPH

fold change of co-precipitated paxillin against wild-type FAK or Y925E-FAK: 3 fold
B1: paxillin (natural protein)
chain: not shown

— PMC3069021 (Molecular Biology of the Cell, 2011)
